{"source": "patent US20260070984A1", "about": "(Boehringer Ingelheim, published 2026)", "binders": {"B1": {"name": "Chimeric 723C2 in IgG4Pro (antibody, V domains shown)", "VH": "EVQLVESGGGLVQPGGSLKLSCAASGFTFSDYYMSWVRQTPEKRLEWVAYISSGGGSSYYPDSVKGRFTISRDNTKNTLYLQMSSLKSEDTAVYYCARLPHYFAMDYWGQGTSVTVSS", "VL": "EIVLTQSPTTMAASPGEKITITCSASSSISSDYLHWYQQKPGFSPELLIYRTSNLASGVPARFSGSGSGTSYSLTIGSMEAEDVATYYCQQGTSLPRAFGGGTKLEIKR"}, "B2": {"name": "Chimeric 820C3 (antibody, V domains shown)", "VH": "QIQLQQSGPELVKTGASVKISCKASGNTFNSNYIQWVKQRPGQGLEWIGWIYPGDGSTNYSEKFKGKTTLTADKSSSTAYMLVSSLTSEDSAVYFCARYGPVPFDYWGQGTTLSVSS", "VL": "DIQMTQTTSSLSASLGDRVTISCSASQDIFNYLNWYQQKPDGTVKLLIYYTSSLHSGVPSRFSGSGSGTDFSLTISNLEPEDIATYYCQQYSNLPYTFGGGTKLEIK", "notes": "Mouse variable domains in human IgG4Pro (Ser228Pro) backbone; also called chimeric 820C3 in IgG4Pro; 820C3-4P"}, "B3": {"name": "723C2 (mouse IgG1 backbone) (antibody, V domains shown)", "VH": "B1 VH with Y107C", "VL": "EIVLTQSPTTMAASPGEKITITCSASSSISSDYLHWYQQKPGFSPELLIYRTSNLASGVPARFSGSGSGTSYSLTIGSMEAEDVATYYCQQGTSLPRAFGGGTKLEIK"}, "B4": {"name": "814E10 (mouse IgG1 backbone) (antibody, V domains shown)", "VH": "QIQLQQSGPELVKPGASVKISCKASGYTFTSYYIQWVKQRPGQGLEWIGWIYPGDGTTNYNENFKGKTTLTADKSSSTVYMLLSSLTSEDSAVYFCARYGLVPFDYWGQGTTLTVSS", "VL": "B2 VL with F30I, Y50S, P59S, S60L, F71Y, I83V, Q89H, N93Q"}, "B5": {"name": "820C3 (mouse IgG1 backbone) (antibody, V domains shown)", "VH": "B2 VH", "VL": "B2 VL"}, "B6": {"name": "313C12 (mouse IgG1 backbone) (antibody, V domains shown)", "VH": "EVQLVESGGGLVKPGGSLKLSCAASGFTFSDYGMHWVRQTPEKGLEWIAYINSDSNTIYYADTVKGRFTISRDNARKTLYLQMTSLRSEDTAMYYCSPLVAPDYWGQGTTLTVSS", "VL": "DIVMTQSQKFMSTTVGDRVSITCKASQNVGTAVAWYQQKPGQSPKLLIYSVSNRYTGVPDRFTGSGSGTDFTLTISNMQSEDLADYFCQQYSSYPFTFGAGTKLELK"}, "B7": {"name": "Antibody E (antibody, human IgG4 S228P, kappa, V domains shown)", "VH": "EVQLVESGGGLVQPGGSLRLSCAASGFTFSDYYMSWVRQAPGKGLEWVAYISSGGGSSYYPDLVKGRFTISRDNAKQSLYLQMQSLRAEDTAVYYCARLPHYFAMDYWGQGTLVTVSS", "VL": "DIQMTQSPSSLSASVGDRVTITCQASQSISSDYLHWYQQKPGKAPKLLIYRTSNLESGVPSRFSGSGSGTDFTFTISSLQPEDIATYYCQQGTSLPRAFGQGTKLEIKR", "notes": "Humanized 723C2, human IgG4Pro/kappa; also called 723C2-IgG4Pro-461-40 with IgK-462-08"}, "B8": {"name": "Antibody A (antibody, human IgG4 S228P, kappa, V domains shown)", "VH": "B7 VH with A49S, S58K, Q77N, Q84S", "VL": "B7 VL with Q24S, E56A", "notes": "Humanized 723C2, human IgG4Pro/kappa"}, "B9": {"name": "Antibody B (antibody, human IgG4 S228P, kappa, V domains shown)", "VH": "B7 VH with Q77N", "VL": "B7 VL with S57T", "notes": "Humanized 723C2, human IgG4Pro/kappa; also called 723C2-IgG4Pro-461-41 with IgK-462-07"}, "B10": {"name": "Antibody D (antibody, human IgG4 S228P, kappa, V domains shown)", "VH": "B7 VH with Q84N", "VL": "B7 VL", "notes": "Humanized 723C2, human IgG4Pro/kappa; also called 723C2-IgG4Pro-461-44 with IgK-462-08"}, "B11": {"name": "antibody 723C2 in human IgG4Pro backbone without the DC to DY mutation in H-CDR3 (antibody, V domains shown)", "VH": "B1 VH with Y107C", "VL": "B3 VL", "notes": "Mouse 723C2 variable domains (H-CDR3 ending DC) in human IgG4Pro backbone; also called 723C2-4P"}}, "note": "Residue numbers refer to the chain shown, from its start."}
{"biological_target": "T1, recombinant human PD-1 (human, UniProt Q15116 25-167, limits assumed)", "T1 construct": "Soluble recombinant protein used in SPR; also called PDCD1; purified recombinant human PD-1", "T1 sequence (Q15116 25-167 limits assumed)": "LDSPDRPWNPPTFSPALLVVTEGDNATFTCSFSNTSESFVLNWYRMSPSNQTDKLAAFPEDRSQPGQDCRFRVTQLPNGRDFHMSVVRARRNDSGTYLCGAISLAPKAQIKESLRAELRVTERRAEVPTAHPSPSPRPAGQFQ", "assay": "SPR, ProteOn XPR36", "protocol": "Kinetics and binding affinities were measured using the ProteOn™ XPR36 (Biorad, Hercules, CA) surface plasmon resonance optical biosensor using material generated from transient transfection following single column purification.", "units": {"Kd": "nM", "koff": "s⁻¹", "kon": "M⁻¹ s⁻¹"}}
{"binder": "B1", "Kd": 2.58, "koff": 0.000582, "kon": 226000}
{"binder": "B2", "Kd": 2.71, "koff": 0.000286, "kon": 106000}
{"biological_target": "T2, human PD-1 expressed on cells (human, UniProt Q15116 25-288)", "T2 sequence (Q15116 25-288)": "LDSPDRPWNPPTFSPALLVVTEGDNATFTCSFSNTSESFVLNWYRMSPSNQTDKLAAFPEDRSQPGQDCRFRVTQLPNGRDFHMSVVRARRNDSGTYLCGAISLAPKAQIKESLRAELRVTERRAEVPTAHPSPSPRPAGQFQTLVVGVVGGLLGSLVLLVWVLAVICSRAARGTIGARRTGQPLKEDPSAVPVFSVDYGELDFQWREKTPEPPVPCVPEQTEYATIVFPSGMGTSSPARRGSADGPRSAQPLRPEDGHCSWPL", "assay": "cell-based or functional assay", "units": {"Emax Values (%), inhibition of NFAT activity": "%", "IC50 Values (nM), inhibition of NFAT activity": "nM"}}
{"binder": "B1", "Emax Values (%), inhibition of NFAT activity": 42.6, "IC50 Values (nM), inhibition of NFAT activity": 0.13}
{"binder": "B3", "Emax Values (%), inhibition of NFAT activity": 43.7, "IC50 Values (nM), inhibition of NFAT activity": 0.14}
{"binder": "B4", "Emax Values (%), inhibition of NFAT activity": 40.7, "IC50 Values (nM), inhibition of NFAT activity": 0.25}
{"binder": "B5", "Emax Values (%), inhibition of NFAT activity": 48.7, "IC50 Values (nM), inhibition of NFAT activity": 0.14}
{"binder": "B2", "Emax Values (%), inhibition of NFAT activity": 40, "IC50 Values (nM), inhibition of NFAT activity": 0.14}
{"binder": "B6", "Emax Values (%), inhibition of NFAT activity": 42.2, "IC50 Values (nM), inhibition of NFAT activity": 0.37}
{"biological_target": "T2, human PD-1 expressed on cells", "assay": "cell-based or functional assay", "remark": "another data set of the same source", "units": {"Emax Values (%), Average, inhibition of IFNγ": "%", "IC50 Values (pM), Average, inhibition of IFNγ": "pM"}}
{"binder": "B3", "Emax Values (%), Average, inhibition of IFNγ": 74, "IC50 Values (pM), Average, inhibition of IFNγ": 122}
{"binder": "B4", "Emax Values (%), Average, inhibition of IFNγ": 63, "IC50 Values (pM), Average, inhibition of IFNγ": 74.2}
{"binder": "B5", "Emax Values (%), Average, inhibition of IFNγ": 82, "IC50 Values (pM), Average, inhibition of IFNγ": 205}
{"binder": "B6", "Emax Values (%), Average, inhibition of IFNγ": 79, "IC50 Values (pM), Average, inhibition of IFNγ": 459}
{"biological_target": "T2, human PD-1 expressed on cells", "assay": "cell-based or functional assay", "remark": "another data set of the same source", "units": {"Emax Values (%), Average, inhibition of IFNγ": "%", "IC50 Values (pM), Geomean, inhibition of IFNγ": "pM"}}
{"binder": "B1", "Emax Values (%), Average, inhibition of IFNγ": 66.5, "IC50 Values (pM), Geomean, inhibition of IFNγ": 18}
{"binder": "B7", "Emax Values (%), Average, inhibition of IFNγ": 47.8, "IC50 Values (pM), Geomean, inhibition of IFNγ": 8.1}
{"binder": "B8", "Emax Values (%), Average, inhibition of IFNγ": 49, "IC50 Values (pM), Geomean, inhibition of IFNγ": 7.4}
{"binder": "B9", "Emax Values (%), Average, inhibition of IFNγ": 48.9, "IC50 Values (pM), Geomean, inhibition of IFNγ": 18.4}
{"binder": "B10", "Emax Values (%), Average, inhibition of IFNγ": 50.1, "IC50 Values (pM), Geomean, inhibition of IFNγ": 18}
{"binder": "B2", "Emax Values (%), Average, inhibition of IFNγ": 56.7, "IC50 Values (pM), Geomean, inhibition of IFNγ": 38.5}
{"biological_target": "T2, human PD-1 expressed on cells", "assay": "cell-based or functional assay", "remark": "another data set of the same source", "units": {"Emax Values (%), Average, inhibition of IL-17A": "%", "IC50 Values (pM), Geomean, inhibition of IL-17A": "pM"}}
{"binder": "B1", "Emax Values (%), Average, inhibition of IL-17A": 70, "IC50 Values (pM), Geomean, inhibition of IL-17A": 14.4}
{"binder": "B7", "Emax Values (%), Average, inhibition of IL-17A": 59.2, "IC50 Values (pM), Geomean, inhibition of IL-17A": 8.1}
{"binder": "B8", "Emax Values (%), Average, inhibition of IL-17A": 69.8, "IC50 Values (pM), Geomean, inhibition of IL-17A": 41.1}
{"binder": "B9", "Emax Values (%), Average, inhibition of IL-17A": 63.4, "IC50 Values (pM), Geomean, inhibition of IL-17A": 25.3}
{"binder": "B10", "Emax Values (%), Average, inhibition of IL-17A": 63.9, "IC50 Values (pM), Geomean, inhibition of IL-17A": 31.9}
{"biological_target": "T2, human PD-1 expressed on cells", "assay": "cell-based or functional assay", "remark": "another data set of the same source", "units": {"IC50 Values (pM), Geomean, inhibition of IL-21": "pM"}}
{"binder": "B1", "IC50 Values (pM), Geomean, inhibition of IL-21": 12}
{"biological_target": "T1, recombinant human PD-1", "assay": "SPR, ProteOn XPR36, 1:1 binding model", "protocol": "Antibody PD1AB-6-4P (antibody in IgG4Pro backbone disclosed in WO2017/058859 to Celgene) was also tested.", "units": {"Kd": "nM", "koff": "s⁻¹", "kon": "M⁻¹ s⁻¹"}}
{"binder": "B1", "Kd": 2.58, "koff": 0.000582, "kon": 226000}
{"binder": "B7", "Kd": 2.77, "koff": 0.000492, "kon": 178000}
{"binder": "B8", "Kd": 2.73, "koff": 0.000434, "kon": 159000}
{"binder": "B9", "Kd": 1.62, "koff": 0.000421, "kon": 259000}
{"binder": "B10", "Kd": 2.58, "koff": 0.000574, "kon": 222000}
{"biological_target": "T3, cynomologous PD-1 (cynomolgus monkey, UniProt B0LAJ3 25-170)", "T3 construct": "Used in SPR; also called cynomolgus PD-1; recombinant cynomologus PD-1", "T3 sequence (B0LAJ3 entry or part of it limits assumed)": "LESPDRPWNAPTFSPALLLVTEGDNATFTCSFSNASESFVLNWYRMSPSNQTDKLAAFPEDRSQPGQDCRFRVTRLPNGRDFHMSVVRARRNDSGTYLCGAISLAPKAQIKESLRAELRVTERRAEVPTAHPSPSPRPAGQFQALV", "assay": "SPR, ProteOn XPR36, 1:1 binding model", "units": {"Kd": "nM", "koff": "s⁻¹", "kon": "M⁻¹ s⁻¹"}, "description": "C) Affinity and kinetic data for the anti-PD-1 antibodies binding to cynomologous PD-1 were measured on the ProteOn™ XPR36 surface plasmon resonance optical biosensor, and globally fit to a 1:1 binding model (Table 11)."}
{"binder": "B1", "Kd": 38.9, "koff": 0.00721, "kon": 185000}
{"binder": "B7", "Kd": 38.2, "koff": 0.00663, "kon": 173000}
{"binder": "B8", "Kd": 26.5, "koff": 0.00473, "kon": 178000}
{"binder": "B9", "Kd": 32.9, "koff": 0.00558, "kon": 169000}
{"binder": "B10", "Kd": 45.2, "koff": 0.00674, "kon": 149000}
{"biological_target": "T2, human PD-1 expressed on cells", "assay": "DELFIA Eu TRF assay: enhancement of biotin labeled PD-L1 binding to CHO cells expressing PD-1", "units": {"EC50 (read off the curve)": "nM"}, "description": "10,000 cells were plated and incubated overnight at 37° C.±5% CO2 incubator (humidified incubator). […] Plates were washed twice with 50 μl of 1× TRF Wash Buffer. 20 μL of Eu-Streptavidin reagent was added to the assay plate, and incubated at room temperature for one hour. Enhancement Solution was added and incubated for 30 minutes at RT."}
{"binder": "B11", "EC50 (read off the curve)": "~2"}
{"biological_target": "T2, human PD-1 expressed on cells", "assay": "flow cytometry: enhancement of PDL1-biotin/Streptavidin-APC binding to CHO cells expressing PD-1", "protocol": "A second cell-based assay where PD-1 was expressed on CHO cells was also utilized to evaluate PD-1/PD-L1 interactions. […] 50 μl of 2×10⁶ cells/ml were added to each well (100,000 cells/well). Cells were centrifuged and re-suspended in 50 μl of the indicated antibody concentrations and incubated for 60 minutes on ice. […] Cells were washed and resuspended in 180 μl stain buffer +20μ PFA and data was acquired on a BD LSR II.", "units": {"EC50 (read off the curve)": "nM"}}
{"binder": "B11", "EC50 (read off the curve)": "~6"}
